# Laboratory results taken from PMC12102759 (2025).
# B1: ATXN2 peptide 913-928 (Ataxin-2), 16-mer library wild type / PABPC1 PABC (PABPC1 PABC domain, residues 544-623) (parent complex)
# chain 1: TLNPNAKEFNPRSFSQ
# chain 2: PLTASMLASAPPQEQKQMLGERLFPLIQAMHPTLAGKITGMLLEIDNSELLHMLESPESLRSKVDEAVAVLQAHQAKEAA
# B2: SH3BP2 peptide 410-425 (SH3 domain-binding protein 2), 16-mer library wild type / TNKS ANK (TNKS 12 ANK repeats, residues 174-649) (parent complex)
# chain 1: LPHLQRSPPDGQSFRS
# chain 2: TGVPAVSGALRELLEACRNGDVSRVKRLVDAANVNAKDMAGRKSSPLHFAAGFGRKDVVEHLLQMGANVHARDDGGLIPLHNACSFGHAEVVSLLLCQGADPNARDNWNYTPLHEAAIKGKIDVCIVLLQHGADPNIRNTDGKSALDLADPSAKAVLTGEYKKDELLEAARSGNEEKLMALLTPLNVNCHASDGRKSTPLHLAAGYNRVRIVQLLLQHGADVHAKDKGGLVPLHNACSYGHYEVTELLLKHGACVNAMDLWQFTPLHEAASKNRVEVCSLLLSHGADPTLVNCHGKSAVDMAPTPELRERLTYEFKGHSLLQAAREADLAKVKKTLALEIINFKQPQSHETALHCAVASLHPKRKQVTELLLRKGANVNEKNKDFMTPLHVAAERAHNDVMEVLHKHGAKMNALDTLGQTALHRAALAGHLQTCRLLLSYGSDPSIISLQGFTAAQMGNEAVQQILSESTPIRTSD
# Variants of: B1
# Experiment: proteomic peptide phage display deep mutational scan (ProP-PD DMS): M13 P8 16-mer library selected against immobilised GST-tagged bait for four days (rounds), NGS of the eluted pools per day and pseudo-replica; bait immobilised on MaxiSorp plates (10 µg), library pre-cleared on GST, 2 h binding at 4 °C, five washes; one round per day, days 1-4; value from days 2 and 3
row,Variant,screen value
1,chain 1 TLNPNAKEFNPRSESQ [chain 1 F14E],"0.000387 average fractional NGS count over selection days 2 and 3 (reads of this peptide / all reads for the bait, averaged over …"
2,chain 1 TLDPNAKEFNPRSFSQ [chain 1 N3D],"0.00069 average fractional NGS count over selection days 2 and 3 (reads of this peptide / all reads for the bait, averaged over …"
3,chain 1 TLNPNAKMFNPRSFSQ [chain 1 E8M],"0.00043 average fractional NGS count over selection days 2 and 3 (reads of this peptide / all reads for the bait, averaged over …"
4,chain 1 TLNPNAKHFNPRSFSQ [chain 1 E8H],"0.00041 average fractional NGS count over selection days 2 and 3 (reads of this peptide / all reads for the bait, averaged over …"
5,chain 1 TLNPNAKEFNPDSFSQ [chain 1 R12D],"0.00156 average fractional NGS count over selection days 2 and 3 (reads of this peptide / all reads for the bait, averaged over …"
6,chain 1 TLNPNAWEFNPRSFSQ [chain 1 K7W],"0.00309 average fractional NGS count over selection days 2 and 3 (reads of this peptide / all reads for the bait, averaged over …"
7,chain 1 TLNVNAKEFNPRSFSQ [chain 1 P4V],"0.00399 average fractional NGS count over selection days 2 and 3 (reads of this peptide / all reads for the bait, averaged over …"
8,chain 1 TLNPNAKEFSPRSFSQ [chain 1 N10S],"0.000422 average fractional NGS count over selection days 2 and 3 (reads of this peptide / all reads for the bait, averaged over …"
9,chain 1 TFNPNAKEFNPRSFSQ [chain 1 L2F],"0.000314 average fractional NGS count over selection days 2 and 3 (reads of this peptide / all reads for the bait, averaged over …"
10,chain 1 TLQPNAKEFNPRSFSQ [chain 1 N3Q],"0.00023 average fractional NGS count over selection days 2 and 3 (reads of this peptide / all reads for the bait, averaged over …"
11,chain 1 TLNPNAYEFNPRSFSQ [chain 1 K7Y],"0.0438 average fractional NGS count over selection days 2 and 3 (reads of this peptide / all reads for the bait, averaged over …"
12,chain 1 RLNPNAKEFNPRSFSQ [chain 1 T1R],"0.00254 average fractional NGS count over selection days 2 and 3 (reads of this peptide / all reads for the bait, averaged over …"
13,chain 1 TLNPNAKEFNPRSPSQ [chain 1 F14P],"0.00134 average fractional NGS count over selection days 2 and 3 (reads of this peptide / all reads for the bait, averaged over …"
14,chain 1 TLNPNSKEFNPRSFSQ [chain 1 A6S],"0.000246 average fractional NGS count over selection days 2 and 3 (reads of this peptide / all reads for the bait, averaged over …"
15,chain 1 TLNPNAKEFNPGSFSQ [chain 1 R12G],"0.000653 average fractional NGS count over selection days 2 and 3 (reads of this peptide / all reads for the bait, averaged over …"
16,chain 1 TLNPNAKYFNPRSFSQ [chain 1 E8Y],"0.000547 average fractional NGS count over selection days 2 and 3 (reads of this peptide / all reads for the bait, averaged over …"
17,chain 1 TLNPNAKEFNPFSFSQ [chain 1 R12F],"0.000951 average fractional NGS count over selection days 2 and 3 (reads of this peptide / all reads for the bait, averaged over …"
18,chain 1 TLNPNAKSFNPRSFSQ [chain 1 E8S],"0.00107 average fractional NGS count over selection days 2 and 3 (reads of this peptide / all reads for the bait, averaged over …"
19,chain 1 TLNPNAKEFNPRNFSQ [chain 1 S13N],"0.00133 average fractional NGS count over selection days 2 and 3 (reads of this peptide / all reads for the bait, averaged over …"
20,chain 1 TLNPNAKVFNPRSFSQ [chain 1 E8V],"0.00108 average fractional NGS count over selection days 2 and 3 (reads of this peptide / all reads for the bait, averaged over …"
21,chain 1 TLNPNAKTFNPRSFSQ [chain 1 E8T],"0.00103 average fractional NGS count over selection days 2 and 3 (reads of this peptide / all reads for the bait, averaged over …"

row,Variant,screen value
1,chain 1 TLNPNAKEFQPRSFSQ [chain 1 N10Q],"0.00128 average fractional NGS count over selection days 2 and 3 (reads of this peptide / all reads for the bait, averaged over …"
2,chain 1 TLNHNAKEFNPRSFSQ [chain 1 P4H],"0.000277 average fractional NGS count over selection days 2 and 3 (reads of this peptide / all reads for the bait, averaged over …"
3,chain 1 TLNPNAKEFNTRSFSQ [chain 1 P11T],"0.00444 average fractional NGS count over selection days 2 and 3 (reads of this peptide / all reads for the bait, averaged over …"
4,chain 1 TLNPNAKEFNPVSFSQ [chain 1 R12V],"0.00419 average fractional NGS count over selection days 2 and 3 (reads of this peptide / all reads for the bait, averaged over …"
5,chain 1 TLNPNAKEFNPRSFAQ [chain 1 S15A],"0.000937 average fractional NGS count over selection days 2 and 3 (reads of this peptide / all reads for the bait, averaged over …"
6,chain 1 TLNPNAKEFNPRSFQQ [chain 1 S15Q],"0.000598 average fractional NGS count over selection days 2 and 3 (reads of this peptide / all reads for the bait, averaged over …"
7,chain 1 TLNPNAKEFNPRSFRQ [chain 1 S15R],"0.000394 average fractional NGS count over selection days 2 and 3 (reads of this peptide / all reads for the bait, averaged over …"
8,chain 1 TLNPAAKEFNPRSFSQ [chain 1 N5A],"0.00056 average fractional NGS count over selection days 2 and 3 (reads of this peptide / all reads for the bait, averaged over …"
9,chain 1 TLNPNAGEFNPRSFSQ [chain 1 K7G],"0.00102 average fractional NGS count over selection days 2 and 3 (reads of this peptide / all reads for the bait, averaged over …"
10,chain 1 NLNPNAKEFNPRSFSQ [chain 1 T1N],"0.000793 average fractional NGS count over selection days 2 and 3 (reads of this peptide / all reads for the bait, averaged over …"
11,chain 1 TLNPNAKEFNPRGFSQ [chain 1 S13G],"0.00314 average fractional NGS count over selection days 2 and 3 (reads of this peptide / all reads for the bait, averaged over …"
12,chain 1 DLNPNAKEFNPRSFSQ [chain 1 T1D],"0.00327 average fractional NGS count over selection days 2 and 3 (reads of this peptide / all reads for the bait, averaged over …"
13,chain 1 TLNPNAKEFNPRDFSQ [chain 1 S13D],"0.00111 average fractional NGS count over selection days 2 and 3 (reads of this peptide / all reads for the bait, averaged over …"
14,chain 1 ILNPNAKEFNPRSFSQ [chain 1 T1I],"0.000134 average fractional NGS count over selection days 2 and 3 (reads of this peptide / all reads for the bait, averaged over …"
15,chain 1 TLNPDAKEFNPRSFSQ [chain 1 N5D],"0.00049 average fractional NGS count over selection days 2 and 3 (reads of this peptide / all reads for the bait, averaged over …"
16,chain 1 TLNPNAKEFNVRSFSQ [chain 1 P11V],"0.00178 average fractional NGS count over selection days 2 and 3 (reads of this peptide / all reads for the bait, averaged over …"
17,chain 1 TLNPNAKEFNPTSFSQ [chain 1 R12T],"0.00189 average fractional NGS count over selection days 2 and 3 (reads of this peptide / all reads for the bait, averaged over …"
18,chain 1 TLNPNAKEFTPRSFSQ [chain 1 N10T],"0.00052 average fractional NGS count over selection days 2 and 3 (reads of this peptide / all reads for the bait, averaged over …"
19,chain 1 TLNPNAKQFNPRSFSQ [chain 1 E8Q],"0.000543 average fractional NGS count over selection days 2 and 3 (reads of this peptide / all reads for the bait, averaged over …"
20,chain 1 TLNPNAKEFNPISFSQ [chain 1 R12I],"0.00122 average fractional NGS count over selection days 2 and 3 (reads of this peptide / all reads for the bait, averaged over …"
21,chain 1 TLNPNAKEFNPRSFDQ [chain 1 S15D],"0.000508 average fractional NGS count over selection days 2 and 3 (reads of this peptide / all reads for the bait, averaged over …"

# Variants of: B2
# Experiment: as above
row,Variant,screen value
1,chain 1 LPHLQRSPPDGQSGRS [chain 1 F14G],"0.000932 average fractional NGS count over selection days 2 and 3 (reads of this peptide / all reads for the bait, averaged over …"
2,chain 1 LPHLQRSPPDNQSFRS [chain 1 G11N],"0.000201 average fractional NGS count over selection days 2 and 3 (reads of this peptide / all reads for the bait, averaged over …"
3,chain 1 LPHLQRSPPDGQIFRS [chain 1 S13I],"0.0065 average fractional NGS count over selection days 2 and 3 (reads of this peptide / all reads for the bait, averaged over …"
4,chain 1 LPHIQRSPPDGQSFRS [chain 1 L4I],"0.00171 average fractional NGS count over selection days 2 and 3 (reads of this peptide / all reads for the bait, averaged over …"
5,chain 1 LPHLQRSPPDGQSFHS [chain 1 R15H],"0.00172 average fractional NGS count over selection days 2 and 3 (reads of this peptide / all reads for the bait, averaged over …"
6,chain 1 LPHLQRSPPDGQSFSS [chain 1 R15S],"0.00343 average fractional NGS count over selection days 2 and 3 (reads of this peptide / all reads for the bait, averaged over …"
7,chain 1 LPHLQRSPPDGQAFRS [chain 1 S13A],"0.000295 average fractional NGS count over selection days 2 and 3 (reads of this peptide / all reads for the bait, averaged over …"
8,chain 1 LPHLQRSPPDGQSTRS [chain 1 F14T],"0.0022 average fractional NGS count over selection days 2 and 3 (reads of this peptide / all reads for the bait, averaged over …"
9,chain 1 LPHLQRYPPDGQSFRS [chain 1 S7Y],"0.00213 average fractional NGS count over selection days 2 and 3 (reads of this peptide / all reads for the bait, averaged over …"
10,chain 1 LPHLQRSPPDGQSIRS [chain 1 F14I],"0.00763 average fractional NGS count over selection days 2 and 3 (reads of this peptide / all reads for the bait, averaged over …"
11,chain 1 LPHLQRSPPDGQSFGS [chain 1 R15G],"0.00618 average fractional NGS count over selection days 2 and 3 (reads of this peptide / all reads for the bait, averaged over …"
12,chain 1 LPHLYRSPPDGQSFRS [chain 1 Q5Y],"0.00141 average fractional NGS count over selection days 2 and 3 (reads of this peptide / all reads for the bait, averaged over …"
13,chain 1 LPHLQRSPPAGQSFRS [chain 1 D10A],"0.000226 average fractional NGS count over selection days 2 and 3 (reads of this peptide / all reads for the bait, averaged over …"
14,chain 1 LPHLQRSPPDGFSFRS [chain 1 Q12F],"0.000426 average fractional NGS count over selection days 2 and 3 (reads of this peptide / all reads for the bait, averaged over …"
